Usually Kd stands for a measure of binding affinity in units of concentration. The term koff denotes a measure of how fast the partners let go of each other. High values mean a short-lived complex, low ones a long-lived complex. As a reminder, the kon is the second-order rate constant of association.

Here are results for 1 molecule from patent publication US20070128190A1 (GLENMARK PHARMACEUTICALS S A, published 2007).

The target in test [1] is human α1β1 integrin (immobilized) (human, UniProt P56199 29-1179; P05556 21-798, limits assumed). Briefly: ELISA on immobilized human α1β1. As to the method:
Human α1β1 integrin (Chemicon International) was diluted in Coating Buffer (25 mM Tris, pH 7.5, 150 mM NaCl, 1 mM MgCl₂) to a final concentration of 0.5 μg/ml. 96-well immunoplates were coated with α1β1 at 50 ng/well and incubated overnight at 4° C. The plates were washed three times with Wash Buffer (50 mM Tris, pH 7.5, 150 mM NaCl, 2 mM MgCl₂, 0.5% Tween-20) and blocked with 5% w/v/skim milk in Wash Buffer for one hour at room temperature. […] Fifty microliters/well of the diluted antibody solutions were added to the α1β1-coated plates, incubated for one hour at room temperature, and then washed three times. […] After a one-hour incubation at room temperature, the plates were washed three times, incubated in substrate solution (1 mg/ml 4-nitrophenyl phosphate, 0.1 M diethanolamine, 5 mM MgCl₂, pH 9.8) for 20 minutes, and terminated with NaOH. The absorbance (405 nm) was read using a Spectramax Plus plate reader using Softmax Pro software. […] The control anti-α1β1 antibody (FB-12) bound to α1β1 with an EC₅₀ of 0.79±0.15 nM.

For test [2], the target named is T1, GST-human α2 I domain fusion protein (human, UniProt P17301 153-368).
T1 construct: the reverse primer ends at ...SIEGTV; also called GST-α2 I domain; hα2I; not shown: glutathione S-transferase tag encoded by vector pGEX-2TK
T1 sequence: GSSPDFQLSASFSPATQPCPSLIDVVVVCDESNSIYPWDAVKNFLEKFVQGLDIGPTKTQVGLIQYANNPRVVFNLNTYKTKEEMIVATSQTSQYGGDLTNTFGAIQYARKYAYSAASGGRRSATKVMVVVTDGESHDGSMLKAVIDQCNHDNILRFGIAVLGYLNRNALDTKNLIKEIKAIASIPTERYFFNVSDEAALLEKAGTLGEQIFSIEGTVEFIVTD
The test can be described thus: SPR (Biacore 2000), antibody captured, GST-α2 I domain in solution; second Human row; second Human row of humanized TMC-2206. From the text: SPR, a method for characterizing macromolecular interactions, is an optical technique that uses the […] phenomenon to exquisitely measure minute changes in refractive index very close to a sensor surface. The binding between an antigen in solution (e.g., fusion protein) and its MAb receptor (immobilized on the surface of a sensor chip) results in a change in refractive index. The interaction is monitored in real time and the amount of bound antigen and the association and dissociation rate constants can be measured with high precision. The equilibrium dissociation constant can be easily calculated from: KD=kd/kₐ=koff/kₒₙ. The cloning of the human α2 I domain and the purification of the expressed GST-human α2 I domain fusion protein was described in Example 12. Analyses were performed at 20° C. using a Biacore 2000 optical sensor with a research-grade CM5 sensor chip (Biacore Life Sciences, Uppsala, Sweden) and equilibrated with running buffer (50 mM HEPES, 150 mM NaCl, 0.25 mM MgCl₂, 0.25 mM CaCl₂, 0.5% Tween-20, 0.1 mg/ml BSA, pH 7.4). […] Each cycle of antigen (GST-human-α2 I domain fusion protein) binding to surface-tethered anti-mouse IgGs involved three steps. […] [The other two surfaces (one anti-mouse and one Protein A) served as analytic references.] In the second step, GST-human-α2 I domain fusion protein was injected across the four surfaces. Responses obtained from the reference surfaces (due to refractive index mismatches between the antigen and running buffer) were subtracted from the responses obtained from the reaction surfaces. In the third step, the antigen/antibody complexes were stripped from the surfaces such that the surfaces could be used for another binding cycle.
(In SPR one partner is held on a chip, and binding of the other changes the refractive index at the surface.)

Sequence of human α1β1 integrin (immobilized) (P56199 29-1179 limits assumed, chain 1 of 2): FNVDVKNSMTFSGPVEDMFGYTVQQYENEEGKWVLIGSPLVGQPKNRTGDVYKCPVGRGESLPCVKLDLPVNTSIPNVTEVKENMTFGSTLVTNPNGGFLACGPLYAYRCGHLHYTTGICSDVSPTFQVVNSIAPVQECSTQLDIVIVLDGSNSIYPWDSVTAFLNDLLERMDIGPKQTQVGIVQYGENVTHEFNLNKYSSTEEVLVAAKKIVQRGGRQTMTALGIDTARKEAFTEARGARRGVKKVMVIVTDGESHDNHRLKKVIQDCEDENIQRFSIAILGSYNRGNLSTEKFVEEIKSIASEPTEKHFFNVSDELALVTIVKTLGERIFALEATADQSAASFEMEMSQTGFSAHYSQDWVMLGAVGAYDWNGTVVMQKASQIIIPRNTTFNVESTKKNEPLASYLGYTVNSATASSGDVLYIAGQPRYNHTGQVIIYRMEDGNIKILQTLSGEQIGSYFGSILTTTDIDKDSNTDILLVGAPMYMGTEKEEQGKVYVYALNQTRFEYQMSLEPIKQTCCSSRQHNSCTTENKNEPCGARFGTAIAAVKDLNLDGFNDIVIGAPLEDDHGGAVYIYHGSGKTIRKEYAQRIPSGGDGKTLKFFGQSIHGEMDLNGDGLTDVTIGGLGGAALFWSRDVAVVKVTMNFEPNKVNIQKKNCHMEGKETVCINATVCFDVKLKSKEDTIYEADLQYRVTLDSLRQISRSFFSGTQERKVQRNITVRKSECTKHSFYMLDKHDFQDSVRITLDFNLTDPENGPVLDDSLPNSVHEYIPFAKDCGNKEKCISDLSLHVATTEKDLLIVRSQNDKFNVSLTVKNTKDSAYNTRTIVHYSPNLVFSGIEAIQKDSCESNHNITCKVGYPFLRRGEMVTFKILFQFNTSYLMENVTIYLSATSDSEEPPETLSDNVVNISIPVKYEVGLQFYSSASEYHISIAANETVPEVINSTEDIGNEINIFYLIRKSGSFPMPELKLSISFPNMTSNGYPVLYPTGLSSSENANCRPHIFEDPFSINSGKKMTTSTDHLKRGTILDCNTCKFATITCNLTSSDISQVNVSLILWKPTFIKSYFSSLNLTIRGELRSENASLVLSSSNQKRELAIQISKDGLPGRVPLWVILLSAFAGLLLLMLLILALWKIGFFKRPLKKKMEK
Sequence of human α1β1 integrin (immobilized) (P05556 21-798 limits assumed, chain 2 of 2): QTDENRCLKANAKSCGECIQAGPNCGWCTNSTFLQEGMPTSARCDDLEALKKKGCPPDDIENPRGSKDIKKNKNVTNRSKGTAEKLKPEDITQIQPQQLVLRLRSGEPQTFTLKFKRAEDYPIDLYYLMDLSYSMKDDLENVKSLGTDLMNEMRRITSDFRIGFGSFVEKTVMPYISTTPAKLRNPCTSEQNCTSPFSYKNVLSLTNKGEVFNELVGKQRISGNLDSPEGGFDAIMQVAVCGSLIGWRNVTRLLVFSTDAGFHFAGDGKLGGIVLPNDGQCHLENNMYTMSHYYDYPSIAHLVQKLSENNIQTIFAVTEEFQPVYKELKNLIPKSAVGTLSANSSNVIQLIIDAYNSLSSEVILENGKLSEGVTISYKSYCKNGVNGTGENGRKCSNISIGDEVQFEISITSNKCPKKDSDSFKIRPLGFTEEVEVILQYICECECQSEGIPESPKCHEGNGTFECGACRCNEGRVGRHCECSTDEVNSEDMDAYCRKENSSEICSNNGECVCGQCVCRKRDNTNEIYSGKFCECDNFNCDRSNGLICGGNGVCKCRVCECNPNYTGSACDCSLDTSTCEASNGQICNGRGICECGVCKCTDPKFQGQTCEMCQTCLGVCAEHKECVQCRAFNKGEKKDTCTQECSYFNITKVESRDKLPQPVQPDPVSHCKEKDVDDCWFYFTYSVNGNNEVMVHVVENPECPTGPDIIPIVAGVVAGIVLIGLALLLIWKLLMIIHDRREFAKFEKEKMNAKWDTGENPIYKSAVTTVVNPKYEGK

B1: Humanized TMC-2206 (hIgG4/κ VH12.0/VL10.0Q) (antibody)
heavy: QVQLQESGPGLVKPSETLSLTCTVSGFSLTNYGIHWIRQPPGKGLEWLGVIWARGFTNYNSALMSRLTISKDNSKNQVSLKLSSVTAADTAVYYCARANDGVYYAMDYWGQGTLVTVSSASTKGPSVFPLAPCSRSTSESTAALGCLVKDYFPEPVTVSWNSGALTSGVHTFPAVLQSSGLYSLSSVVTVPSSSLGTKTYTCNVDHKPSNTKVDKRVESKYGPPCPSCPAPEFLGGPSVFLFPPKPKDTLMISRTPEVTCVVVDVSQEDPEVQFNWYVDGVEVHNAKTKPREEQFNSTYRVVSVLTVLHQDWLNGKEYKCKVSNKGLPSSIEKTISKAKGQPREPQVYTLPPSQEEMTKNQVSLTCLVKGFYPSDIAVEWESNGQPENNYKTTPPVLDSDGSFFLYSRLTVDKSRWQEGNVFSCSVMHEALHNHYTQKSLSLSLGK
light: DFVMTQSPAFLSVTPGEKVTITCSAQSSVNYIHWYQQKPDQAPKKLIYDTSKLASGVPSRFSGSGSGTDYTFTISSLEAEDAATYYCQQWTTNPLTFGQGTKVEIKRTVAAPSVFIFPPSDEQLKSGTASVVCLLNNFYPREAKVQWKVDNALQSGNSQESVTEQDSKDSTYSLSSTLTLSKADYEKHKVYACEVTHQGLSSPVTKSFNRGEC
notes: labelled with Eu or Alexa-488 in some assays
On to B1, for which the binding result in test [1] is given as “no binding”. In addition, in test [2], the affinity, expressed as Kd, was 4 nM; the koff came out at 0.0024 s⁻¹; the kon was determined as 580000 M⁻¹ s⁻¹.
